The text below walks through data of patent US7176008B2, “Process for producing activated thrombin-activatable fibrinolysis inhibitor” (Merck & Co., Inc., priority 2002, dated 2007).

The series is described as follows: Stability of TAFIa activity. The arrangement: species or system human. The method, then: Pooled human plasma (30–40 mL) was diluted 10-fold with HBE buffer (10 mM HEPES, pH 7.4, 5 mM ε-aminocaproic acid). 5 mM of the reversible inhibitor ε-aminocaproic acid was added to maintain TAFIa stability during the isolation.
Thrombin, thrombomodulin and calcium chloride (final concentrations 5 nM, 2 nM and 5 mM, respectively) were added and the solution was shaken at room temperature for 30 min. The formation of serum was quenched with 10 μM FPRCK and centrifuged at 20,000×g for 30 min at 4° C. Unless otherwise mentioned, all isolation steps were performed at 4° C. The fibrin-free solution was loaded onto a heparin-sepharose column (2.5×3 cm) pre-equilibrated with HBE buffer.
In the presence of 5 mM ε-aminocaproic acid, TAFIa activity in serum reached a maximum at ˜5 min and was preserved >30 min at 37° C. Initial studies for formation of serum by simply adding thrombin and calcium only activated a limited amount of TAFI zymogen (<<0.5%) as determined with western blotting. Dilution of the plasma for serum preparation increased TAFI activation. A 4–5-fold increase in TAFI activation was observed if the plasma were diluted 10–20-fold. […] A maximal increase (30–35-fold) was obtained with 2 nM thrombomodulin, consistent with the fact that thrombomodulin is the cofactor for thrombin-mediated TAFI activation. […]

B1: TAFIa: activated thrombin-activatable fibrinolysis inhibitor, a basic carboxypeptidase purified from serum (protein)
chain: ASASYYEQYHSLNEIYSWIEFITERHPDMLTKIHIGSSFEKYPLYVLKVSGKEQAAKNAIWIDCGIHAREWISPAFCLWFIGHITQFYGIIGQYTNLLRLVDFYVMPVVNVDGYDYSWKKNRMWRKNRSFYANNHCIGTDLNRNFASKHWCEEGASSSSCSETYCGLYPESEPEVKAVASFLRRNINQIKAYISMHSYSQHIVFPYSYTRSKSKDHEELSLVASEAVRAIEKISKNTRYTHGHGSETLYLAPGGGDDWIYDLGIKYSFTIELRDTGTYGFLLPERYIKPTCREAFAAVSKIAWHVIRNV
Turning to B1, where the note is “4° C., ε-aminocaproic acid present during isolation”, the “time TAFIa activity was maintained” value is on record as “more than 3 days”. Also, the “time TAFIa activity in serum was preserved” value (37° C., in the presence of 5 mM ε-aminocaproic acid) was over 30 min.
